We go through nine molecules from US6818749.

The target of experiment [1] is TAG72 positive bovine submaxillary mucin (BSM) (bovine). Kind of experiment: relative affinity constant from competition RIA on BSM.
For experiment [2], the target named is anti-CC49 variable region (anti-idiotypic) antibodies in the serum of patient two. Kind of experiment: HPLC size exclusion; 5 µg cold competitor + ^125I-HuCC49 + patient serum; less complex = more competition. (In gel filtration, larger molecules generally elute earlier.)
The target of experiment [3] is anti-CC49 variable region (anti-idiotypic) antibodies in the serum of patient one. The description is as above.
In experiment [4] the target is anti-CC49 variable region (anti-idiotypic) antibodies in the serum of patient six. Described as above.
In experiment [5] the target is anti-CC49 variable region (anti-idiotypic) antibodies in the serum of patient four. Described as above.
For experiment [6], the target named is anti-CC49 variable region (anti-idiotypic) antibodies in the serum of patient three. Described as above.
For experiment [7], the target named is anti-CC49 variable region (anti-idiotypic) antibodies in the serum of patient five. The description is as above.
Experiment [8] addresses anti-idiotypic antibodies to MAb CC49 in the serum of one patient (not named, Example V). Put plainly: HPLC size-exclusion competition: cold competitor vs ^125I-HuCC49 for complex formation with patient serum.
Experiment [9] has as its target mouse anti-idiotypic MAb AI49-1 (γ-subset). Kind of experiment: competition RIA vs ^125I-murine CC49 on adsorbed AI49-1.
The target in experiment [10] is mouse anti-idiotypic MAb AI49-3 (β-subset). Put plainly: competition RIA vs ^125I-murine CC49 on adsorbed AI49-3.
In experiment [11] the target is anti-CC49 variable region (anti-idiotypic) antibodies in the serum of patient two. Kind of experiment: HPLC size exclusion; ^125I-HuCC49 + patient serum, no competitor.
For experiment [12], the target named is anti-CC49 variable region (anti-idiotypic) antibodies in the serum of patient one. The description is as above.
The target of experiment [13] is anti-CC49 variable region (anti-idiotypic) antibodies in the serum of patient six. The description is as above.
For experiment [14], the target named is anti-CC49 variable region (anti-idiotypic) antibodies in the serum of patient four. The description is as above.
Experiment [15] deals with anti-CC49 variable region (anti-idiotypic) antibodies in the serum of patient three. The description is as above.
Experiment [16] concerns the target anti-CC49 variable region (anti-idiotypic) antibodies in the serum of patient five. The experiment is described as above.
Experiment [17] deals with anti-CC49 variable region (anti-idiotypic) antibodies in the serum of patient two. Put plainly: HPLC competition, serial dilutions of cold competitor vs ^125I-HuCC49 with serum of patient two.

B1: HuCC49 CDR variant L-1 (antibody, V domains shown)
VH: QVQLVQSGAEVVKPGASVKISCKASGYTFTDHAIHWVKQNPGQRLEWIGYFSPGNDDFKYNERFKGKATLTADTSASTAYVELSSLRSEDTAVYFCTRSLNMAYWGQGTLVTVSS
VL: DIVMSQSPDSLAVSLGERVTLNCKSSQSVLYSSNSKNYLAWYQQKPGQSPKLLIYWASARESGVPDRFSGSGSGTDFTLTISSVQAEDVAVYYCQQYYSYPLTFGAGTKLELK
As for B1, in experiment [1], the fold less than the Ka of HuCC49 is 2 fold. Also, the percent of complexes came out at 16.9% in [2]; 12.2% in experiment [3]; 16% in experiment [4]; 10.1% in [5]; 9.8% in experiment [6]; 14.3% in experiment [7].

B2: HuCC49 variant ^97L1,2 (antibody, V domains shown)
VH: QVQLVQSGAEVVKPGASVKISCKASGYTFTDHAIHWVKQNPGQRLEWIGYFSPGNDDFKYNERFKGKATLTADTSASTAYVELSSLRSEDTAVYFCTRSLNMAYWGQGTLVTVSS
VL: DIVMSQSPDSLAVSLGERVTLNCKSSQSVLYSSNSKNYLAWYQQKPGQSPKLLIYWASTRESGVPDRFSGSGSGTDFTLTISSVQAEDVAVYYCQQYYSYPLSFGAGTKLELK
Regarding B2, in experiment [1], the fold less than the Ka of HuCC49 fell in the range of 2 to 3 fold.

B3: HuCC49 CDR variant L-3 (antibody, V domains shown)
VH: QVQLVQSGAEVVKPGASVKISCKASGYTFTDHAIHWVKQNPGQRLEWIGYFSPGNDDFKYNERFKGKATLTADTSASTAYVELSSLRSEDTAVYFCTRSLNMAYWGQGTLVTVSS
VL: DIVMSQSPDSLAVSLGERVTLNCKSSQSLLYSGNQKNYLAWYQQKPGQSPKLLIYWASARESGVPDRFSGSGSGTDFTLTISSVQAEDVAVYYCQQYYSTPYSFGAGTKLELK
For B3, the percent of complexes in experiment [2] worked out at 33.5%; in experiment [3] it was 48.2%; in [4] it was 34.8%; in experiment [5] it was 37.6%; in [6], 22.4%; in [7] it was 46.7%.

B4: HuCC49 CDR variant L-1,2 (antibody, V domains shown)
VH: QVQLVQSGAEVVKPGASVKISCKASGYTFTDHAIHWVKQNPGQRLEWIGYFSPGNDDFKYNERFKGKATLTADTSASTAYVELSSLRSEDTAVYFCTRSLNMAYWGQGTLVTVSS
VL: DIVMSQSPDSLAVSLGERVTLNCKSSQSVLYSSNSKNYLAWYQQKPGQSPKLLIYWASTRESGVPDRFSGSGSGTDFTLTISSVQAEDVAVYYCQQYYSYPLTFGAGTKLELK
In experiment [1], B4 yielded a fold less than the Ka of HuCC49 of 2 fold. Moreover, the percent of complexes in [2] stood at 15.7%; in experiment [3] it was 24.5%; in experiment [4] it was 24.6%; in [5], 19.4%; in [6] it was 12.6%; in [7], 20.2%.

B5: HuCC49 CDR variant H-1 (antibody, V domains shown)
VH: QVQLVQSGAEVVKPGASVKISCKASGYTFTSYAMHWVKQNPGQRLEWIGYFSPGNDDFKYNERFKGKATLTADTSASTAYVELSSLRSEDTAVYFCTRSLNMAYWGQGTLVTVSS
VL: DIVMSQSPDSLAVSLGERVTLNCKSSQSLLYSGNQKNYLAWYQQKPGQSPKLLIYWASARESGVPDRFSGSGSGTDFTLTISSVQAEDVAVYYCQQYYSYPLTFGAGTKLELK
For the molecule B5, the percent of complexes turned out to be 5.8% in experiment [2]; 3.9% in experiment [3]; 10.2% in [4]; 7% in [5]; 3.3% in experiment [6]; 3.5% in experiment [7].

B6: HuCC49 CDR variant L-2 (antibody, V domains shown)
VH: QVQLVQSGAEVVKPGASVKISCKASGYTFTDHAIHWVKQNPGQRLEWIGYFSPGNDDFKYNERFKGKATLTADTSASTAYVELSSLRSEDTAVYFCTRSLNMAYWGQGTLVTVSS
VL: DIVMSQSPDSLAVSLGERVTLNCKSSQSLLYSGNQKNYLAWYQQKPGQSPKLLIYWASTRESGVPDRFSGSGSGTDFTLTISSVQAEDVAVYYCQQYYSYPLTFGAGTKLELK
For the molecule B6, the percent of complexes was determined as 3% in experiment [2]; 3.4% in experiment [3]; 2.7% in [4]; 4.4% in experiment [5]; 2.7% in [6]; 2.4% in [7]. The fold better competition than parental HuCC49 in experiment [8] was found to be 2 fold.

B7: HuCC49 CDR variant H-2 (antibody, V domains shown)
VH: QVQLVQSGAEVVKPGASVKISCKASGYTFTDHAIHWVKQNPGQRLEWIGWINAGNGNTKYSQKFQGKATLTADTSASTAYVELSSLRSEDTAVYFCTRSLNMAYWGQGTLVTVSS
VL: DIVMSQSPDSLAVSLGERVTLNCKSSQSLLYSGNQKNYLAWYQQKPGQSPKLLIYWASARESGVPDRFSGSGSGTDFTLTISSVQAEDVAVYYCQQYYSYPLTFGAGTKLELK
As to B7, the fold less than the Ka of HuCC49 in experiment [1] worked out at 300 fold. The fold more competitor for 50% inhibition than HuCC49 in experiment [9] and in [10] was 4 to 15 fold each time. In addition, the percent of complexes is 29.7% in experiment [2]; 32.5% in experiment [3]; 32.7% in experiment [4]; 24.7% in experiment [5]; 12.7% in experiment [6]; 36.6% in experiment [7].

B8: HuCC49 CDR variant H-3 (antibody, V domains shown)
VH: QVQLVQSGAEVVKPGASVKISCKASGYTFTDHAIHWVKQNPGQRLEWIGYFSPGNDDFKYNERFKGKATLTADTSASTAYVELSSLRSEDTAVYFCTRGGYYGSGSGSNYWGQGTLVTVSS
VL: DIVMSQSPDSLAVSLGERVTLNCKSSQSLLYSGNQKNYLAWYQQKPGQSPKLLIYWASARESGVPDRFSGSGSGTDFTLTISSVQAEDVAVYYCQQYYSYPLTFGAGTKLELK
In the case of B8, the percent of complexes in [2] was found to be 6.7%; in [3], 5.1%; in experiment [4], 7.3%; in experiment [5], 8.2%; in experiment [6], 3.7%; in experiment [7], 4.6%.

B9: humanized monoclonal antibody HuCC49 (parental HuCC49) (antibody, V domains shown)
VH: QVQLVQSGAEVVKPGASVKISCKASGYTFTDHAIHWVKQNPGQRLEWIGYFSPGNDDFKYNERFKGKATLTADTSASTAYVELSSLRSEDTAVYFCTRSLNMAYWGQGTLVTVSS
VL: DIVMSQSPDSLAVSLGERVTLNCKSSQSLLYSGNQKNYLAWYQQKPGQSPKLLIYWASARESGVPDRFSGSGSGTDFTLTISSVQAEDVAVYYCQQYYSYPLTFGAGTKLELK
As to B9, the percent of complexes in experiment [11] came out at 32.2%; in experiment [12], 46.2%; in experiment [13], 33.5%; in [14], 56.8%; in experiment [15] it was 24.5%; in experiment [16] it was 42.9%. Also, the percent of complexes in [2] came out at 1.5%; in experiment [3], 0%; in [4], 0%; in experiment [5], 0.5%; in experiment [6], 2.6%; in experiment [7], 3%. In addition, the amount of competitor for 25% competition in experiment [17] is 60 ng.
